Laboratory results published in paper PMC4374719, “Herpesviral G Protein-Coupled Receptors Activate NFAT to Induce Tumor Formation via Inhibiting the SERCA Calcium ATPase” (PLoS Pathogens, 2015).

Biological target: T1, KSHV G protein-coupled receptor (kGPCR), stably expressed in HUVEC (Kaposi's sarcoma-associated herpesvirus …, UniProt Q98146 1-342)
T1 construct: GPCR homologue of Kaposi's sarcoma-associated herpesvirus (kGPCR); Probably HA-tagged like the other constructs, but no tag and no primary antibody is named for the proximity ligation assay; also called HUVEC/kGPCR
T1 sequence: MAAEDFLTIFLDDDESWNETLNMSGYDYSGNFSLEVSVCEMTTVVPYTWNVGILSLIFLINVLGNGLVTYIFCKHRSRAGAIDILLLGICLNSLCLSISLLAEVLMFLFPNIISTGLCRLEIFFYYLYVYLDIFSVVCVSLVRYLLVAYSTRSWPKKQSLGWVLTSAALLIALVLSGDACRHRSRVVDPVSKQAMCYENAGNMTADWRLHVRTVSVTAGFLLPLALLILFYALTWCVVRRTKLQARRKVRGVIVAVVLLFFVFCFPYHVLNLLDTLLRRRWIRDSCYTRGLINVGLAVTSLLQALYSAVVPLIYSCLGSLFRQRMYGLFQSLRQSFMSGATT
Experiment: proximity ligation; Duolink in situ kit on fixed HUVEC-Vector or HUVEC-kGPCR stable cells; spots counted in more than 100 cells of each group
Details: partners not purified

B1: sarco/endoplasmic reticulum calcium ATPase 2 (SERCA2), endogenous in HUVEC (enzyme, human (endogenous in HUVEC), UniProt P16615 1-1042, looked up)
chain: MENAHTKTVEEVLGHFGVNESTGLSLEQVKKLKERWGSNELPAEEGKTLLELVIEQFEDLLVRILLLAACISFVLAWFEEGEETITAFVEPFVILLILVANAIVGVWQERNAENAIEALKEYEPEMGKVYRQDRKSVQRIKAKDIVPGDIVEIAVGDKVPADIRLTSIKSTTLRVDQSILTGESVSVIKHTDPVPDPRAVNQDKKNMLFSGTNIAAGKAMGVVVATGVNTEIGKIRDEMVATEQERTPLQQKLDEFGEQLSKVISLICIAVWIINIGHFNDPVHGGSWIRGAIYYFKIAVALAVAAIPEGLPAVITTCLALGTRRMAKKNAIVRSLPSVETLGCTSVICSDKTGTLTTNQMSVCRMFILDRVEGDTCSLNEFTITGSTYAPIGEVHKDDKPVNCHQYDGLVELATICALCNDSALDYNEAKGVYEKVGEATETALTCLVEKMNVFDTELKGLSKIERANACNSVIKQLMKKEFTLEFSRDRKSMSVYCTPNKPSRTSMSKMFVKGAPEGVIDRCTHIRVGSTKVPMTSGVKQKIMSVIREWGSGSDTLRCLALATHDNPLRREEMHLEDSANFIKYETNLTFVGCVGMLDPPRIEVASSVKLCRQAGIRVIMITGDNKGTAVAICRRIGIFGQDEDVTSKAFTGREFDELNPSAQRDACLNARCFARVEPSHKSKIVEFLQSFDEITAMTGDGVNDAPALKKAEIGIAMGSGTAVAKTASEMVLADDNFSTIVAAVEEGRAIYNNMKQFIRYLISSNVGEVVCIFLTAALGFPEALIPVQLLWVNLVTDGLPATALGFNPPDLDIMNKPPRNPKEPLISGWLFFRYLAIGCYVGAATVGAAAWWFIAADGGPRVSFYQLSHFLQCKEDNPDFEGVDCAIFESPYPMTMALSVLVTIEMCNALNSLSENQSLLRMPPWENIWLVGSICLSMSLHFLILYVEPLPLIFQITPLNVTQWLMVLKISLPVILMDETLKFVARNYLEPGKECVQPATKSCSFSACTDGISWPFVLLIMPLVIWVYSTDTNFSDMFWS
notes: SERCA2 of human umbilical vein endothelial cells; source: endogenous, HUVEC, in fixed cells
  fold of proximity ligation fluorescent spots over control HUVEC cells: > 10 fold
